The source of these data is paper PMC11652653, “SON-1010: an albumin-binding IL-12 fusion protein that improves cytokine half-life, targets tumors, and enhances therapeutic efficacy” (Frontiers in Immunology, 2024).

This experiment has as its target T1, human serum albumin (human, UniProt P02768 25-609).
T1 construct: human serum albumin (HSA); also called HSA; rHSA
Briefly: SPR; HSA bound to the chip, SON-1010 added, then SPARC (ternary complex); pH 6.0. The conditions noted are these: both partners purified.

B1: secreted protein acidic and rich in cysteine (natural protein, UniProt P09486 18-303, looked up)
chain: APQQEALPDETEVVEETVAEVTEVSVGANPVQVEVGEFDDGAEETEEEVVAENPCQNHHCKHGKVCELDENNTPMCVCQDPTSCPAPIGEFEKVCSNDNKTFDSSCHFFATKCTLEGTKKGHKLHLDYIGPCKYIPPCLDSELTEFPLRMRDWLKNVLVTLYERDEDNNLLTEKQKLRVKKIHENEKRLEAGDHPVELLARDFEKNYNMYIFPVHWQFGQLDQHPIDGYLSHTELAPLRAPLIPMEHCTTRFFETCDLDNDKYIALDEWAGCFGIKQKDIDKDLVI
notes: SPARC (secreted protein acidic and rich in cysteine); also called SPARC
One may read the Kd as the constant that tells how readily two partners part at equilibrium. The low end stands for a tighter complex, the high end for a looser complex. B1 had a Kd of 10 nM.
